In this series the test system is ssAPC14.2 TALEN right monomer (Xanthomonas TALE-FokI (artificial)?). Briefly: cell_activity. The following applies: pair with p5; repeat 50%; pig fibroblasts.

In turn, “ACAGAAATTCTGGGT (double strand) [APC14.2 right half-site]” came in with an activity of 48 % HDR day 3.

(Values after US20150067898.)
